One experiment concerns NOD mice. Description: Type 1 diabetes incidence in NOD mice (blood glucose monitoring). Conditions: for mice that developed T1D: 100 ug/dose. It counts as in vivo, mouse. The procedure:
The effect of C1ORF32 ECD-Fc treatment on modulation of disease incidence was tested in NOD mice, which spontaneously develop a T1D disease. In NOD mice, autoreactive CD4+ can be observed within the β-islets as early as 2 weeks of age (Yang et al., Immunity 1996 February; 4(2):189-94), and by 10 weeks of age, when the treatment with C1ORF32 ECD-Fc (SEQ ID NO: 42) began in the present experiments, NOD mice develop peri-insulitis and β-cell loss (Jimeno et al., Immunology and Cell Biology. (2010) 88, 734-745).
Materials: C1ORF ECD-Fc (SEQ ID NO:42) was used in these studies, as described below. Control Ig was mouse IgG2a from BioXcell (Cat# BE0085). NOD mice were purchased from Jackson labs, and blood glucose was measured via sampling a small drop of blood from the tail vein.
Methods: Six week old NOD mice were purchased from Jackson labs. At 10 weeks of age, mice were split into groups and treated with either vehicle (PBS) Control Ig or C1ORF ECD-Fc (SEQ ID NO:42) as detailed below. Treatment was given via IP injections 3×/wk/2 wks. Blood glucose levels were monitored weekly from 8 weeks of age until the mice reached […] of age as detailed below. Mice were considered diabetic upon having two consecutive blood glucose readings of >250 mg/dL. Diabetic mice were sacrificed on the day of the second high glucose level reading. Blood glucose levels were obtained from the tail vein, and the level of blood glucose measured via use of a OneTouch. UltraSmart. Blood Glocuse Monitoring System (OneTouch; Johnson & Johnson; New Brunswick, N.J.) in a blinded manner. This study was carried out 3 times; For study 3 proteins were provided coded.
Treatment groups (n=5 mice/group): 1. Control Ig (mouse IgG2a), 100 ug/dose 2. C1ORF ECD-Fc (SEQ ID NO:42), 100 ug/dose.
Treatment groups (n=14-15): 1. Control Ig (mouse IgG2a; BioXcell) (100 ug/dose) 2. C1ORF ECD-Fc (SEQ ID NO:42) (100 ug/dose)

The test system of a further experiment is Male DBA/1O1aHsd mice. As to the kind of experiment: CIA model, early stage treatment from day 18. It counts as in vivo, mouse. The source says: The aim of this study was to estimate the effect of C1ORF32-P8-V1-ECD-mFc (SEQ ID NO:42) on disease development in a type II Collagen induced arthritis (CIA) mouse model upon administration at early stage of disease; i.e., when specific and predictive markers for RA development are present in the serum, but before onset of clinical symptoms.
In the CIA model, arthritis is induced by immunization with type II collagen in CFA on day 1 which is followed by boosting with type II collagen in CFA on day 21. Antibodies against both CII and cyclic citrullinated peptide (CCPs) appear early after immunization, before joint swelling is observed.
To evaluate the effect of early stage treatment with C1ORF32-P8-V1-ECD-mFc (SEQ ID NO:42) on disease development treatment started on day 18 and was given IP injection, Q2D to mice from day 18 until day 32.
Male DBA/1O1aHsd mice weighing 16-25 grams (mean 22 g) on day 18 of the study were obtained from Harlan, Inc., Indianapolis, Ind. Mice (10/group) were anaesthetized with Isoflurane, shaved at the base of the tail, and injected intradermally with 150 μl of Freund's Complete Adjuvant (Sigma) containing bovine type II collagen (Elastin Products, Owensville, Mo.) (2 mg/me at the base of the tail on day 0 and again on day 21. On study day 18, mice were randomized by body weight into treatment groups. Treatment was initiated after enrollment and continued every other day (Q2D at 48 h intervals) through study day 33. On study days 23-34, onset of arthritis occurred. Mice were terminated on study day 34. Clinical scores were given for each of the paws (right front, left front, right rear, left rear) on arthritis days 18-34.
Mice were weighed on study days 18, 20, 22, 24, 26, 28, 30, 32 and 34 (prior to necropsy). […]

Setting [1] is: combined data from all 3 studies.

B1: C1ORF32 ECD-Fc (SEQ ID NO:42): fusion protein of human C1ORF32 ECD fused to mouse immunoglobulin Fc (human-mouse fusion protein) (protein)
chain: LQVTVPDKKKVAMLFQPTVLRCHFSTSSHQPAVVQWKFKSYCQDRMGESLGMSSTRAQSLSKRNLEWDPYLDCLDSRRTVRVVASKQGSTVTLGDFYRGREITIVHDADLQIGKLMWGDSGLYYCIITTPDDLEGKNEDSVELLVLGRTGLLADLLPSFAVEIMGSENLYFQGSGEPRGPTIKPCPPCKCPAPNLLGGPSVFIFPPKIKDVLMISLSPIVTCVVVDVSEDDPDVQISWFVNNVEVHTAQTQTHREDYNSTLRVVSALPIQHQDWMSGKEFKCKVNNKDLPAPIERTISKPKGSVRAPQVYVLPPPEEEMTKKQVTLTCMVTDFMPEDIYVEWTNNGKTELNYKNTEPVLDSDGSYFMYSKLRVEKKNWVERNSYSCSVVHEGLHNHHTTKSFSRTPGK
modifications: Fusion protein human C1ORF32-ECD fused to mouse IgG2a Fc
Take B1: the “mice prevented from developing full blown autoimmune diabetes” value in the experiment on NOD mice (NOD mice, overall statement) is 77%. For the same molecule, the “mice that did not develop T1D” value with NOD mice (Study I, n=5, 100 ug/dose IP 3x/wk for 2 wks from 10 wks of age) is recorded as 3 out of 5. The “mice that developed T1D” value with NOD mice (Study II, n=6) is 1 out of 6. For the same molecule, the “mice that developed T1D” value with NOD mice (Study III, n=14-15, by the age of 24 weeks) is reported as 3 out of 15. Moreover, in the experiment with NOD mice (setting [1]), the “mice in which T1D was observed” value was 6 out of 26 and the “percent of mice in which T1D was observed” value stood at 23%. Moreover, the “effect of the lower dose” value with Male DBA/1O1aHsd mice (3.3 mg/kg IP Q2D) is “No effect”. Moreover, the clinical arthritis score result in the experiment with Male DBA/1O1aHsd mice (10 mg/kg IP Q2D from day 18, vs PBS or mIgG2a, did not reach significance) is recorded as “inhibition of clinical arthritis score”. For the same molecule, the “body weight loss (percent change from baseline)” value in the experiment with Male DBA/1O1aHsd mice (10 mg/kg, from study day 30 until termination, data not shown) is on record as “significantly inhibited toward normal”.

The values are drawn from patent US20170275344A1, “POLYPEPTIDES AND USES THEREOF AS A DRUG FOR TREATMENT OF AUTOIMMUNE DISORDERS” (Compugen Ltd., priority 2014, published 2017).
